Measured values reported in publication PMC6555819, “Comprehensive study of nuclear receptor DNA binding provides a revised framework for understanding receptor specificity”.

B1: NRC3_wobSeed137_DR5_A14T_o1 (dsDNA)
DNA 1: GCATATGTAGGTTTCATCCGGGTCATTCAGGCTATGGCGATTGACAGCGTAGAATGAAGG
DNA 2: CCTTCATTCTACGCTGTCAATCGCCATAGCCTGAATGACCCGGATGAAACCTACATATGC
B2: NRC3_wobSeed133_DR5_G21T_o1 (dsDNA)
DNA 1: GCCGTCCAAGGTCAATGCTATGTCAGTGAAAGCATTGCGATTGACAGCGTAGAATGAAGG
DNA 2: CCTTCATTCTACGCTGTCAATCGCAATGCTTTCACTGACATAGCATTGACCTTGGACGGC
B3: NRC3_wobSeed100_DR4_A14C_o1 (dsDNA)
DNA 1: GCCCTACTGGGCCCCGAAAGGTCATTGATTCAGTGAGCGATTGACAGCGTAGAATGAAGG
DNA 2: CCTTCATTCTACGCTGTCAATCGCTCACTGAATCAATGACCTTTCGGGGCCCAGTAGGGC
B4: NRC3_wobSeed82_DR3_T21G_o1 (dsDNA)
DNA 1: GCATCGAAAGGTCGACGAGGGGAGTATACACCGTTTGCGATTGACAGCGTAGAATGAAGG
DNA 2: CCTTCATTCTACGCTGTCAATCGCAAACGGTGTATACTCCCCTCGTCGACCTTTCGATGC
B5: NRC3_wobSeed119_DR4_G27A_o1 (dsDNA)
DNA 1: GCGGAACGAGGGCATTCGAGTTGATAACATGGCGATGCGATTGACAGCGTAGAATGAAGG
DNA 2: CCTTCATTCTACGCTGTCAATCGCATCGCCATGTTATCAACTCGAATGCCCTCGTTCCGC
B6: NRC3_wobSeed4_DR0_T22C_o1 (dsDNA)
DNA 1: GCCCTACTGGGCCAAGGTCATCGATCAGTCAAAGCAGCGATTGACAGCGTAGAATGAAGG
DNA 2: CCTTCATTCTACGCTGTCAATCGCTGCTTTGACTGATCGATGACCTTGGCCCAGTAGGGC
B7: NRC3_wobSeed98_DR4_T12C_o1 (dsDNA)
DNA 1: GCACTAGTTGGCCAGCTGAGGTCACACACAATTCGGGCGATTGACAGCGTAGAATGAAGG
DNA 2: CCTTCATTCTACGCTGTCAATCGCCCGAATTGTGTGTGACCTCAGCTGGCCAACTAGTGC
B8: NRC3_wobSeed125_DR5_G21T_o1 (dsDNA)
DNA 1: GCCCTTACGGGTCACTGACATGTTATAGCATTTGGAGCGATTGACAGCGTAGAATGAAGG
DNA 2: CCTTCATTCTACGCTGTCAATCGCTCCAAATGCTATAACATGTCAGTGACCCGTAAGGGC
B9: NRC3_wobSeed125_DR5_T6C_o1 (dsDNA)
DNA 1: GCCCTCACGGGTCACTGACAGGTTATAGCATTTGGAGCGATTGACAGCGTAGAATGAAGG
DNA 2: CCTTCATTCTACGCTGTCAATCGCTCCAAATGCTATAACCTGTCAGTGACCCGTGAGGGC
B10: NRC3_wobSeed114_DR4_G10T_o1 (dsDNA)
DNA 1: GCAATACAGTGTCATCGTAGGCCAGAGTACGCACAGGCGATTGACAGCGTAGAATGAAGG
DNA 2: CCTTCATTCTACGCTGTCAATCGCCTGTGCGTACTCTGGCCTACGATGACACTGTATTGC
B11: NRC3_wobSeed86_DR3_T8G_o1 (dsDNA)
DNA 1: GCGCTGCGAGGTCAGGTTGGTCAGCTAACGGGTACGGCGATTGACAGCGTAGAATGAAGG
DNA 2: CCTTCATTCTACGCTGTCAATCGCCGTACCCGTTAGCTGACCAACCTGACCTCGCAGCGC
B12: NRC3_wobSeed99_DR4_T5C_o1 (dsDNA)
DNA 1: GCTCCCGGAGGACACGAAAGGTCAGAGCTCGACATCGCGATTGACAGCGTAGAATGAAGG
DNA 2: CCTTCATTCTACGCTGTCAATCGCGATGTCGAGCTCTGACCTTTCGTGTCCTCCGGGAGC
B13: NRC3_wobSeed110_DR4_C7A_o1 (dsDNA)
DNA 1: GCTCTGATAGGTCAACGATGGTCAGCTAATCTGCTAGCGATTGACAGCGTAGAATGAAGG
DNA 2: CCTTCATTCTACGCTGTCAATCGCTAGCAGATTAGCTGACCATCGTTGACCTATCAGAGC
B14: NRC3_wobSeed90_DR3_A28C_o1 (dsDNA)
DNA 1: GCCATACAGGGTCAGCTAGGCCAGAGTCGGGACGGCGCGATTGACAGCGTAGAATGAAGG
DNA 2: CCTTCATTCTACGCTGTCAATCGCGCCGTCCCGACTCTGGCCTAGCTGACCCTGTATGGC
B15: NRC3_wobSeed21_DR0_T5A_o1 (dsDNA)
DNA 1: GCCGACAAAGTTCAAGGTAACGTAACAGAAAGCAGCGCGATTGACAGCGTAGAATGAAGG
DNA 2: CCTTCATTCTACGCTGTCAATCGCGCTGCTTTCTGTTACGTTACCTTGAACTTTGTCGGC
B16: NRC3_wobSeed6_DR0_T22A_o1 (dsDNA)
DNA 1: GCCCTAGCAGGCCAGGGTCACACAAGCATTTCGCTTGCGATTGACAGCGTAGAATGAAGG
DNA 2: CCTTCATTCTACGCTGTCAATCGCAAGCGAAATGCTTGTGTGACCCTGGCCTGCTAGGGC
B17: NRC3_wobSeed61_DR2_G4C_o1 (dsDNA)
DNA 1: GCCCTCCAAGGTCAGCAGGTCAGTGAAAGCGACGTGGCGATTGACAGCGTAGAATGAAGG
DNA 2: CCTTCATTCTACGCTGTCAATCGCCACGTCGCTTTCACTGACCTGCTGACCTTGGAGGGC
B18: NRC3_wobSeed61_DR2_G10T_o1 (dsDNA)
DNA 1: GCCGTCCAATGTCAGCAGGTCAGTGAAAGCGACGTGGCGATTGACAGCGTAGAATGAAGG
DNA 2: CCTTCATTCTACGCTGTCAATCGCCACGTCGCTTTCACTGACCTGCTGACATTGGACGGC
B19: NRC3_wobSeed46_DR1_A15T_o1 (dsDNA)
DNA 1: GCTTACCAAGGTGATAGGTCGTTGATGCACGCCTTGGCGATTGACAGCGTAGAATGAAGG
DNA 2: CCTTCATTCTACGCTGTCAATCGCCAAGGCGTGCATCAACGACCTATCACCTTGGTAAGC
B20: NRC3_wobSeed27_DR1_G7C_o1 (dsDNA)
DNA 1: GCACTCCGAGGACAAAGGTCAGAGCTACGCCAGTGAGCGATTGACAGCGTAGAATGAAGG
DNA 2: CCTTCATTCTACGCTGTCAATCGCTCACTGGCGTAGCTCTGACCTTTGTCCTCGGAGTGC
B21: NRC3_wobSeed144_DR5_T19G_o1 (dsDNA)
DNA 1: GCTCGAGTAGGTTACCAAGGGGGCATTCAGCTTTCTGCGATTGACAGCGTAGAATGAAGG
DNA 2: CCTTCATTCTACGCTGTCAATCGCAGAAAGCTGAATGCCCCCTTGGTAACCTACTCGAGC
B22: NRC3_wobSeed5_DR0_C24G_o1 (dsDNA)
DNA 1: GCCCTTACGGGTCAAGGTTATAGGACGGGTGGTACGGCGATTGACAGCGTAGAATGAAGG
DNA 2: CCTTCATTCTACGCTGTCAATCGCCGTACCACCCGTCCTATAACCTTGACCCGTAAGGGC
B23: NRC3_wobSeed5_DR0_T6A_o1 (dsDNA)
DNA 1: GCCCTAACGGGTCAAGGTTATAGCACGGGTGGTACGGCGATTGACAGCGTAGAATGAAGG
DNA 2: CCTTCATTCTACGCTGTCAATCGCCGTACCACCCGTGCTATAACCTTGACCCGTTAGGGC
B24: NRC3_wobSeed81_DR3_C22G_o1 (dsDNA)
DNA 1: GCATCTCTAGGTAACCAAGTTGAGTGAATGCCGAACGCGATTGACAGCGTAGAATGAAGG
DNA 2: CCTTCATTCTACGCTGTCAATCGCGTTCGGCATTCACTCAACTTGGTTACCTAGAGATGC
B25: NRC3_wobSeed142_DR5_A5G_o1 (dsDNA)
DNA 1: GCATGCCAAGGTGATCGTGAGGTCGTTGATACTAACGCGATTGACAGCGTAGAATGAAGG
DNA 2: CCTTCATTCTACGCTGTCAATCGCGTTAGTATCAACGACCTCACGATCACCTTGGCATGC
B26: NRC3_wobSeed74_DR3_A14C_o1 (dsDNA)
DNA 1: GCTCTAGTTGGTCCCGGAGGTCACACACGACGGGTAGCGATTGACAGCGTAGAATGAAGG
DNA 2: CCTTCATTCTACGCTGTCAATCGCTACCCGTCGTGTGTGACCTCCGGGACCAACTAGAGC
B27: NRC3_wobSeed74_DR3_G17T_o1 (dsDNA)
DNA 1: GCTCTAGTTGGTCACGTAGGTCACACACGACGGGTAGCGATTGACAGCGTAGAATGAAGG
DNA 2: CCTTCATTCTACGCTGTCAATCGCTACCCGTCGTGTGTGACCTACGTGACCAACTAGAGC
B28: NRC3_wobSeed122_DR5_C28A_o1 (dsDNA)
DNA 1: GCGCTAGTTGGTCAGTAAAAGGTCACAAACCGGTCGGCGATTGACAGCGTAGAATGAAGG
DNA 2: CCTTCATTCTACGCTGTCAATCGCCGACCGGTTTGTGACCTTTTACTGACCAACTAGCGC
B29: NRC3_wobSeed2_DR0_A22T_o1 (dsDNA)
DNA 1: GCCCTAGTTGGTCAAGGTCACTCACGCTATAGGTACGCGATTGACAGCGTAGAATGAAGG
DNA 2: CCTTCATTCTACGCTGTCAATCGCGTACCTATAGCGTGAGTGACCTTGACCAACTAGGGC
B30: NRC3_wobSeed69_DR2_T5A_o1 (dsDNA)
DNA 1: GCAGACAAAGTTCACTAGGTAACGTAAGATTCAGCTGCGATTGACAGCGTAGAATGAAGG
DNA 2: CCTTCATTCTACGCTGTCAATCGCAGCTGAATCTTACGTTACCTAGTGAACTTTGTCTGC
B31: NRC3_wobSeed69_DR2_C6G_o1 (dsDNA)
DNA 1: GCAGTGAAAGTTCACTAGGTAACGTAAGATTCAGCTGCGATTGACAGCGTAGAATGAAGG
DNA 2: CCTTCATTCTACGCTGTCAATCGCAGCTGAATCTTACGTTACCTAGTGAACTTTCACTGC
B32: NRC3_wobSeed88_DR3_T25A_o1 (dsDNA)
DNA 1: GCTAGCCTAGGTCATGCGGGCCAGAATAGTGTCGGCGCGATTGACAGCGTAGAATGAAGG
DNA 2: CCTTCATTCTACGCTGTCAATCGCGCCGACACTATTCTGGCCCGCATGACCTAGGCTAGC
B33: NRC3_wobSeed88_DR3_A28G_o1 (dsDNA)
DNA 1: GCTAGCCTAGGTCATGCGGGCCAGTATGGTGTCGGCGCGATTGACAGCGTAGAATGAAGG
DNA 2: CCTTCATTCTACGCTGTCAATCGCGCCGACACCATACTGGCCCGCATGACCTAGGCTAGC

The binders below were run against VDR:RXRa (Homo sapiens, UniProt P11473;P19793 full;full) (assay: no ligand; PBM; 270 nM : 90 nM RXRa; PBS pH 7.4, 2% milk, 0.02% Triton X-100, 1 mM DTT, BSA, 0.4 mg/ml salmon testes DNA). Conditions: tags: His kept;His cleaved; copies: 1;1; label: surface-attached array probe.
Sequence of VDR:RXRa (P11473 whole entry, chain 1 of 2): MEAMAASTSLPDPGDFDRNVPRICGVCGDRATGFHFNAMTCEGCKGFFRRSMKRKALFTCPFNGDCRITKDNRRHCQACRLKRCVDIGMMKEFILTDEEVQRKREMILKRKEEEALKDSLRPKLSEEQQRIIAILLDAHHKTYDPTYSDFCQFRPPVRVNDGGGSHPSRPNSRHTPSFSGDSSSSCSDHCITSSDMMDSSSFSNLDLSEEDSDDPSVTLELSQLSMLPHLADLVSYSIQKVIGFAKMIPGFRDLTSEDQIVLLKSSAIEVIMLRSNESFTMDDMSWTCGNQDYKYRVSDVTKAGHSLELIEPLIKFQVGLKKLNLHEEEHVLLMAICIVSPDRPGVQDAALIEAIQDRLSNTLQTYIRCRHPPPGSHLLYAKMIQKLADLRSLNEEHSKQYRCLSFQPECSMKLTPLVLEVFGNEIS
Sequence of VDR:RXRa (P19793 whole entry, chain 2 of 2): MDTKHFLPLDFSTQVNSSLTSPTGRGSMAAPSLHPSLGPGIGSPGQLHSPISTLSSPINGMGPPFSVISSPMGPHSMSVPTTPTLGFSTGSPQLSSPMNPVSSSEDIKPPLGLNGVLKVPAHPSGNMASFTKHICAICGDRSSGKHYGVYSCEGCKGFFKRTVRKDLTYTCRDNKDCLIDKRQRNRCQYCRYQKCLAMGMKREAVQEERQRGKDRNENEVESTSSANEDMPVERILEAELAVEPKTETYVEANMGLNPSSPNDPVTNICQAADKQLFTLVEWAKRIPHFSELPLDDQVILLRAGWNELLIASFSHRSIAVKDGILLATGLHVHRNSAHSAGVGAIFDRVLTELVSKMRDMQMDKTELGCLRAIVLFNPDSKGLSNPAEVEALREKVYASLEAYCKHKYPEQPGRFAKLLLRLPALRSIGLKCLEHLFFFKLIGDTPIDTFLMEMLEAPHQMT
Method in brief: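 Binding buffer was PBS pH 7.4 with 2% milk, 0.02% Triton X-100, 1 mM DTT, 0.2 mg/mL BSA and 0.4 mg/ml salmon testes DNA. In it, ligand-free nuclear receptor dimers were incubated 1 h on custom Agilent 4×180K protein-binding microarrays carrying double-stranded probes. Antibodies against each partner (one per run) detected binding, and z-scores were calculated against random background probes after regression normalization of scanned fluorescence.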
For B1, the binding signal was 3.52 PBM z-score against 500 random probes.
In the case of B2, the binding signal is reported as 3.76 PBM z-score against 500 random probes.
For B3, the binding signal was 3.44 PBM z-score against 500 random probes.
For B4, the binding signal was 3.65 PBM z-score against 500 random probes.
For B5, the binding signal was 3.42 PBM z-score against 500 random probes.
For B6, the binding signal was 3.17 PBM z-score against 500 random probes.
With B7 the binding signal was 3.6 PBM z-score against 500 random probes.
For B8, the binding signal was 3.4 PBM z-score against 500 random probes.
In the case of B9, the binding signal is reported as 3.38 PBM z-score against 500 random probes.
For B10, the binding signal was 0.5 PBM z-score against 500 random probes.
With B11 the binding signal was 3.78 PBM z-score against 500 random probes.
B12 was tested, and the binding signal was 3.26 PBM z-score against 500 random probes.
With B13 the binding signal was 3.1 PBM z-score against 500 random probes.
In the case of B14, the binding signal is reported as 3.58 PBM z-score against 500 random probes.
With B15 the binding signal was 3.74 PBM z-score against 500 random probes.
B16 was tested, and the binding signal was 3.03 PBM z-score against 500 random probes.
In the case of B17, the binding signal is reported as 3.8 PBM z-score against 500 random probes.
With B18 the binding signal was 0.44 PBM z-score against 500 random probes.
For B19, the binding signal was 0.48 PBM z-score against 500 random probes.
With B20 the binding signal was 3.7 PBM z-score against 500 random probes.
For B21, the binding signal was 3.47 PBM z-score against 500 random probes.
For B22, the binding signal was 3.5 PBM z-score against 500 random probes.
For B23, the binding signal was 3.06 PBM z-score against 500 random probes.
In the case of B24, the binding signal is reported as 0.49 PBM z-score against 500 random probes.
In the case of B25, the binding signal is reported as 3.08 PBM z-score against 500 random probes.
B26 was tested, and the binding signal was 3.63 PBM z-score against 500 random probes.
With B27 the binding signal was 3.15 PBM z-score against 500 random probes.
For B28, the binding signal was 3.68 PBM z-score against 500 random probes.
B29 was tested, and the binding signal was 3.83 PBM z-score against 500 random probes.
In the case of B30, the binding signal is reported as 3.85 PBM z-score against 500 random probes.
For B31, the binding signal was 3.33 PBM z-score against 500 random probes.
For B32, the binding signal was 3.12 PBM z-score against 500 random probes.
B33 was tested, and the binding signal was 3 PBM z-score against 500 random probes.
